Experimental data: US20130184160

What was measured:
Experiment in all cases: filter
[1] = tested on: Fibrinogen (glycosylated, untreated), P02671-2+P02675+P02679; details: T positions from B-TTP; average Kd of pool after round 13
[2] = target: Alpha-1 acid glycoprotein (UniProt P02763); details: T positions from B-TTP (quinoline-8-boronic acid linked at 5-position of dU via triazole), outside primer; specificity control
Fetuin = target: T1, Fetuin (UniProt P12763); details: T positions from B-TTP (quinoline-8-boronic acid linked at 5-position of dU via triazole), outside primer; specificity control
T1 sequence: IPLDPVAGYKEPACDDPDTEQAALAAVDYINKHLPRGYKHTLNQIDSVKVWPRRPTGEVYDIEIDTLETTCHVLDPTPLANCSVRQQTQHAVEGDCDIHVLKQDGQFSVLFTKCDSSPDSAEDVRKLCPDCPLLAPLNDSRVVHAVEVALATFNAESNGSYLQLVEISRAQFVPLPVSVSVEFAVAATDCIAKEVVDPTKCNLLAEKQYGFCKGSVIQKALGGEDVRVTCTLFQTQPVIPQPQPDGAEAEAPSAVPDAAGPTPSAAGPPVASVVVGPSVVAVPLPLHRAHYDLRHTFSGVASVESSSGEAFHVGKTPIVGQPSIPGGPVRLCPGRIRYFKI

Alpha-1 acid glycoprotein, sequence (P02763 19-201): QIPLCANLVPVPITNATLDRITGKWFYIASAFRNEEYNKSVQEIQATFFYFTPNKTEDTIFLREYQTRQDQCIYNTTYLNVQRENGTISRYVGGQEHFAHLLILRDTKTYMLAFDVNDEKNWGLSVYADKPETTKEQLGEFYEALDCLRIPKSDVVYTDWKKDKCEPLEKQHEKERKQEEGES
Fibrinogen (glycosylated, untreated), P02671-2+P02675+P02679, sequence (P02671 other isoform, or with tags, fused parts or gaps, chain 1 of 3): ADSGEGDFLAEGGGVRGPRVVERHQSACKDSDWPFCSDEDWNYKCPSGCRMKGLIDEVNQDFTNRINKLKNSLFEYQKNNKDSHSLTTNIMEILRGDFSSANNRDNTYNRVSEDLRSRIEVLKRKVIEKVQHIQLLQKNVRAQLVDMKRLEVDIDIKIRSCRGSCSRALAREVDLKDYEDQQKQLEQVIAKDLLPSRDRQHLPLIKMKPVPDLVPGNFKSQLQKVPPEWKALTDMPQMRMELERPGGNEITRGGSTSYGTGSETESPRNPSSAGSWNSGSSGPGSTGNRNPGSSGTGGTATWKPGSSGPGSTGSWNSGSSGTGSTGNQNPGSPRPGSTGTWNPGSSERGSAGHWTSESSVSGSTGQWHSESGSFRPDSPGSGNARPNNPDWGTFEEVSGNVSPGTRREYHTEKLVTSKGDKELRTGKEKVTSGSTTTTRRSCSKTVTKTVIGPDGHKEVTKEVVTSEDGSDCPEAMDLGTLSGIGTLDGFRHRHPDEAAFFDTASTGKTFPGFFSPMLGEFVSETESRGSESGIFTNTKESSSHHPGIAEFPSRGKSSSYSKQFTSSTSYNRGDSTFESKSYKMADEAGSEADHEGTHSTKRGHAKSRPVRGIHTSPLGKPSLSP
Fibrinogen (glycosylated, untreated), P02671-2+P02675+P02679, sequence (P02675 31-491, chain 2 of 3): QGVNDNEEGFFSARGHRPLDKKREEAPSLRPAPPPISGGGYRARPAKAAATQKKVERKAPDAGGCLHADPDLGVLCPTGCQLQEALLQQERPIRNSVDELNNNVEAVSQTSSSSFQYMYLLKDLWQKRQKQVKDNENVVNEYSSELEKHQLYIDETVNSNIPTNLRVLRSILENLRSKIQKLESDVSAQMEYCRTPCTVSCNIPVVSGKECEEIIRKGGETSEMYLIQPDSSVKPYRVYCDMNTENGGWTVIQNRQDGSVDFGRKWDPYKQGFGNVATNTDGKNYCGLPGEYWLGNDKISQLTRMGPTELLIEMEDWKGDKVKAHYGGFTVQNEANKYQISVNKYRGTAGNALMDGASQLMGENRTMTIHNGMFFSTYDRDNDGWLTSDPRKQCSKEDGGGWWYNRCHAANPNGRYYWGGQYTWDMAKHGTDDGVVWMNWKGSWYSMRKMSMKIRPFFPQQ
Fibrinogen (glycosylated, untreated), P02671-2+P02675+P02679, sequence (P02679 27-453, chain 3 of 3): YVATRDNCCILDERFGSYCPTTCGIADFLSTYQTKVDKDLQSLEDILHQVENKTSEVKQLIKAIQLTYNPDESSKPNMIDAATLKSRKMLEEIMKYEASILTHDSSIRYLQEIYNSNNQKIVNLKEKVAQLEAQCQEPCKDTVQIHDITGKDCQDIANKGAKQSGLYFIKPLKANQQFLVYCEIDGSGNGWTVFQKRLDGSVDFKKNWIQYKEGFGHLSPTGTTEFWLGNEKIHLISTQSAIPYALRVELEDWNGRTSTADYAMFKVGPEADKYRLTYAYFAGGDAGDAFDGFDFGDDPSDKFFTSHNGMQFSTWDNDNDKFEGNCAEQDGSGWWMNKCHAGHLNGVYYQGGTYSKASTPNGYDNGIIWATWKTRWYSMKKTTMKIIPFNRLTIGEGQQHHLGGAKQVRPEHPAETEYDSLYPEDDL

## CCTTCGTTGTCTGCCTTCGTNNNNNNNNNNNNNNNNNNNNNNNNNNNNNNNNNNNNNNNNNNNNNNNNNNACCCTTCAGAATTCGCACCA [Round 13 fibrinogen pool]
[1]
  Kd: 5000 nM

## CCTTCGTTGTCTGCCTTCGTAGCGGATCGAATTACGCGTTAACGGCAACCGATAACGGGACCGATTGCACACCCTTCAGAATTCGCACCA [85A B-TTP (114H)]
[2]
  Kd: 700 nM
Fetuin
  Kd: 2200 nM
